In US20260070986A1 (AFFIMED, published 2026):

Legend:
[1] = biological target: T1, human CD16A (158F) on transfected CHO cells (cAg_34) (human, UniProt P08637 17-254); assay: flow cytometry on huCD16A-transfected CHO cells (cAg_34), one-site fit of MFI, mean of 3 experiments
T1 construct: Exact cell-anchored construct not described; also called huCD16A
Experimental: (§1) After washing in FACS buffer, cells were incubated in 50 μL FACS buffer without antibodies or with titrated antibodies starting at a concentration of 100 μg/mL followed by ten 5-fold serial dilutions for 30 min on ice in the dark. After washing twice, cells were incubated with APC-conjugated goat anti-human IgG (H+L)-APC (Dianova, cat. 109-136-088) for 30 min on ice in the dark. […] After washing, binding was measured by flow cytometry and mean fluorescence intensities (MFI) of cell samples were calculated and corrected for background staining using control cells stained with secondary antibodies only.
(§2) Equilibrium dissociation constants (KD) of antibody binding were calculated by plotting MFI values and fitting a non-linear regression model for one-site binding to hyperbolic dose-response curves using GraphPad Prism.

[2] = biological target: T1, human CD16A (158F) on transfected CHO …; assay: flow cytometry on huCD16A-transfected CHO cells (cAg_34), one-site fit of MFI, experiment 3
Experimental: as §1, §2

[3] = biological target: T1, human CD16A (158F) on transfected CHO …; assay: flow cytometry on huCD16A-transfected CHO cells (cAg_34), one-site fit of MFI, experiment 1
Experimental: as §1, §2

[4] = biological target: T1, human CD16A (158F) on transfected CHO …; assay: flow cytometry on huCD16A-transfected CHO cells, anti-human IgG-APC detection
Experimental: To analyze binding of different antibody constructs to CHO cells transfected with human CD16A (cAg_34), relative to CD16 expression by flow cytometry, 1-2×10⁵ were resuspended in 100 μL FACS buffer (PBS (Invitrogen, cat.: 14190-169) containing 2% heat-inactivated FCS (Invitrogen, cat.: 10270-106), and 0.1% sodium azide (Roth, Karlsruhe, Germany, cat.: A1430.0100)) in round-bottom 96-well microtiter plates. After washing in FACS buffer, cells were incubated in 50 μL FACS buffer without antibodies or with titrated antibodies starting at a concentration of 100 μg/mL followed by ten 5-fold serial dilutions for 30 min on ice in the dark. After washing twice, cells were incubated with APC-conjugated goat anti-human IgG (H+L)-APC (Dianova, cat. 109-136-088) for 30 min on ice in the dark. […] After washing, binding was measured by flow cytometry and mean fluorescence intensities (MFI) of cell samples were calculated and corrected for background staining using control cells stained with secondary antibodies only.
as §2

[5] = biological target: T1, human CD16A (158F) on transfected CHO …; assay: flow cytometry on huCD16A-transfected CHO cells (cAg_34), one-site fit of MFI, experiment 2
Experimental: as §1, §2

[6] = biological target: T2, recombinant human CD16A 158F, biotinylated mFc.silenced/Avi-tagged (human, UniProt P08637 17-208, biotinylated (Avi-tag)); assay: SPR (Biacore), 37 °C, multi-cycle kinetics, biotin-captured antigen as ligand, antibody construct as analyte, 1:1 binding model
T2 construct: not shown: silenced mouse Fc (mFc.silenced) and Avi-tag
Experimental: (§3) After each cycle, chip surfaces were regenerated with 6M guanidine-HCl, 0.25M NaOH and reloaded with Biotin Capture reagent. Interaction kinetics were determined by fitting data from multi-cycle kinetics experiments to a simple 1:1 interaction model using the local data analysis option (Rmax and RI) available within Biacore T200 Evaluation Software (v3.1). Referencing was done against a flow cell without captured ligand (Fc2-Fc1, Fc4-Fc3).
(§4) Affinity and kinetic parameters were evaluated for interaction with human CD16A and cynomolgus CD16 using a 1:1 Binding model.

[7] = biological target: T3, recombinant cynomolgus CD16, biotinylated mFc.silenced/Avi-tagged (cynomolgus, UniProt Q8SPW2 17-208, biotinylated (Avi-tag)); assay: as above
T3 construct: not shown: silenced mouse Fc (mFc.silenced) and Avi-tag
Experimental: as §3, §4

[8] = biological target: T4, recombinant human CD16A 158V, biotinylated mFc.silenced/Avi-tagged (human, UniProt P08637 17-208, biotinylated (Avi-tag)); assay: as above
T4 construct: not shown: silenced mouse Fc (mFc.silenced) and Avi-tag
Experimental: as §3, §4

[9] = biological target: T5, CD123 on CD123+ cells (EOL-1 and other CD123+ tumour or patient cells) (human, UniProt P26951 19-378); assay: flow cytometry on CD123+ EOL-1 cells, anti-human IgG-APC detection
T5 construct: whole, on cells; also called interleukin-3 receptor
Experimental: To analyze binding of CD123xCD16A antibody constructs to CD123+ EOL-1 cells, CD123− A-431 cells and CD123− Karpas-299 cells by flow cytometry, 1×10⁵ cells were resuspended in 100 μL FACS buffer in round-bottom 96-well microtiter plates. After washing in FACS buffer, cells were incubated in 100 μL FACS buffer without antibodies or with titrated antibodies starting at a concentration of 100 μg/mL followed by eight 10-fold serial dilutions for 45 min on ice in the dark. After washing twice, cells were incubated with APC-conjugated goat anti-human IgG (H+L)-APC (1/200 dilution) for 30 min on ice in the dark. After washing, binding was measured by flow cytometry and mean fluorescence intensities (MFI) of cell samples were calculated and corrected for background staining using control cells stained with secondary antibodies only.

T3 sequence (Q8SPW2 17-208): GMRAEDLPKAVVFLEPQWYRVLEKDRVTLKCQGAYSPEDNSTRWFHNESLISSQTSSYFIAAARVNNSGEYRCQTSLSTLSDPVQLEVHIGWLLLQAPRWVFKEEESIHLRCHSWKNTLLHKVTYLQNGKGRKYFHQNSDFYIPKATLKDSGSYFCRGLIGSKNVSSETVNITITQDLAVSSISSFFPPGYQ
T2 sequence (P08637 17-208): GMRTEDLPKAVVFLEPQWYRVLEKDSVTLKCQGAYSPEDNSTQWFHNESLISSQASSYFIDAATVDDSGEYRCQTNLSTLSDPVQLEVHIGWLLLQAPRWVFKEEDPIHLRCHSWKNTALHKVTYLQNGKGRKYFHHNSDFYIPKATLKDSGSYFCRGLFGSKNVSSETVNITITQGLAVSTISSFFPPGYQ
T1 sequence (P08637 17-254 limits assumed): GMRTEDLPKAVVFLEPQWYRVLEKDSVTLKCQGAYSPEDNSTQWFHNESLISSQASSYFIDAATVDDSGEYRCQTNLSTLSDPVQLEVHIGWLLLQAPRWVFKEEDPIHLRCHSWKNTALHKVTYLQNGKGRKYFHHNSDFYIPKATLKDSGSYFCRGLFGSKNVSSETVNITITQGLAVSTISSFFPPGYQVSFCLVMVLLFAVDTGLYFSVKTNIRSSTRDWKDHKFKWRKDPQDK
T4 sequence (P08637 17-208 F176V limits assumed): as the sequence (P08637 17-208) above, with F160V counted along it
T5 sequence (P26951 19-378): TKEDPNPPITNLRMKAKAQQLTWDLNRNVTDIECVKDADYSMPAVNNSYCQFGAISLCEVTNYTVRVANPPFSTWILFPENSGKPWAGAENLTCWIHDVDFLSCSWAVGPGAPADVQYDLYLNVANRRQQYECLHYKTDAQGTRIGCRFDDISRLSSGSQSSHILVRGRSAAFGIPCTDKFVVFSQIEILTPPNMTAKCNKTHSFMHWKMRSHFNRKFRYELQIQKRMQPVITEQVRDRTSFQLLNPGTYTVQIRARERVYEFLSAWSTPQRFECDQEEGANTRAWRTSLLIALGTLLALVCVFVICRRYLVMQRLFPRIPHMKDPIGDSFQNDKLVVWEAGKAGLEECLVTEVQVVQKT

B1: scFv-IgAb_148 (CD123-1xCD16a2) (bispecific antibody)
chain 1: QVQLQQSGAEVKKPGASVKVSCKASGYTFTDYYMKWVKQSHGKSLEWMGDIIPSNGATFYNQKFKGKATLTVDRSTSTAYMELSSLRSEDTAVYYCARSHLLRASWFAYWGQGTLVTVSSASTKGPSVFPLAPSSKSTSGGTAALGCLVKDYFPEPVTVSWNSGALTSGVHTFPAVLQSSGLYSLSSVVTVPSSSLGTQTYICNVNHKPSNTKVDKKVEPKSCDKTHTCPPCPAPEFEGGPSVFLFPPKPKDTLMISRTPEVTCVVVAVSHEDPEVKFNWYVDGVEVHNAKTKPREEQYNSTYRVVSVLTVLHQDWLNGKEYKCKVSNKALPAPIEKTISKAKGQPREPQVYTLPPSREEMTKNQVSLTCLVKGFYPSDIAVEWESNGQPENNYKTTPPVLDSDGSFFLYSKLTVDKSRWQQGNVFSCSVMHEALHNHYTQKSLSLSPGGGGGSGGGGSGGGGSGGGGSGGGGSGGGGSSYVLTQPSSVSVAPGQTATISCGGHNIGSKNVHWYQQRPGQSPVLVIYQDNKRPSGIPERFSGSNSGNTATLTISGTQAMDEADYYCQVWDNYSVLFGGGTKLTVLGGSGGSGGSGGSGGSGGSGGSQVQLVQSGAEVKKPGESLKVSCKASGYTFTSYYMHWVRQAPGQGLEWMGAIEPMYGSTSYAQKFQGRVTMTRDTSTSTVYMELSSLRSEDTAVYYCARGSAYYYDFADYWGQGTLVTVSS
chain 2: not shown
notes: also called CD123xCD16A scFv-IgAb_148; CD16a2xCD123-1
With B1 the Kd [1] was 37.6 nM, the Kd [2] was 37.9 nM and the Kd [3] was 56.2 nM. The “EC50 (read off the curve)” value [4] was roughly 20 nM, the Kd [5] was 18.7 nM and the Kd [6] was 1.25 nM. It also gave a koff [6] of 0.00037 s⁻¹, a kon [6] of 300000 M⁻¹ s⁻¹ and a Kd [7] of 2.48 nM. The koff [7] was 0.00047 s⁻¹, the kon [7] was 190000 M⁻¹ s⁻¹ and the Kd [8] was 0.75 nM. The koff [8] was 0.00023 s⁻¹ and the kon [8] was 310000 M⁻¹ s⁻¹.

B2: scFv-IgAb_264 (CD123-2xCD16a2) (bispecific antibody)
chain 1: QVQLVQSGAEVKKPGASVKMSCKASGYTFTDYYMKWVKQAPGQGLEWIGDIIPSNGATFYNQKFKGKATLTVDRSISTAYMHLNRLRSDDTAVYYCTRSHLLRASWFAYWGQGTLVTVSSASTKGPSVFPLAPSSKSTSGGTAALGCLVKDYFPEPVTVSWNSGALTSGVHTFPAVLQSSGLYSLSSVVTVPSSSLGTQTYICNVNHKPSNTKVDKKVEPKSCDKTHTCPPCPAPEFEGGPSVFLFPPKPKDTLMISRTPEVTCVVVAVSHEDPEVKFNWYVDGVEVHNAKTKPREEQYNSTYRVVSVLTVLHQDWLNGKEYKCKVSNKALPAPIEKTISKAKGQPREPQVYTLPPSREEMTKNQVSLTCLVKGFYPSDIAVEWESNGQPENNYKTTPPVLDSDGSFFLYSKLTVDKSRWQQGNVFSCSVMHEALHNHYTQKSLSLSPGGGGGSGGGGSGGGGSGGGGSGGGGSGGGGSSYELTQPLSVSVALGQTARITCGGHNIGSKNVHWYQQKPGQAPVLVIYQDNKRPSGIPERFSGSNSGNTATLTISRAQAGDEADYYCQVWDNYNVLFGCGTKLTVLGGSGGSGGSGGSGGSGGSGGSQVQLVQSGAEVKKPGASVKVSCKASGYTFTSYYMHWVRQAPGQCLEWMGAIEPRYGSTSYAQKFQGRVTMTRDTSTSTVYMELSSLRSEDTAVYYCARGSAYYYDFADYWGQGTLVTVSS
chain 2: not shown
notes: also called CD123xCD16A ICE
In the case of B2, the “EC50 (read off the curve)” value [9] is reported as roughly 0.4 nM, the Kd [6] is reported as 0.567 nM and the koff [6] is reported as 0.0036 s⁻¹. It also gave a kon [6] of 6.4e+06 M⁻¹ s⁻¹, a Kd [7] of 2.4 nM and a koff [7] of 0.013 s⁻¹. It also gave a kon [7] of 5.2e+06 M⁻¹ s⁻¹, a Kd [8] of 0.43 nM and a koff [8] of 0.0027 s⁻¹. For the same binder, the kon [8] was 6.3e+06 M⁻¹ s⁻¹.

B3: scFv-IgAb_265 (CD123-1xCD16a2) (bispecific antibody)
chain 1: QVQLQQSGAEVKKPGASVKVSCKASGYTFTDYYMKWVKQSHGKSLEWMGDIIPSNGATFYNQKFKGKATLTVDRSTSTAYMELSSLRSEDTAVYYCARSHLLRASWFAYWGQGTLVTVSSASTKGPSVFPLAPSSKSTSGGTAALGCLVKDYFPEPVTVSWNSGALTSGVHTFPAVLQSSGLYSLSSVVTVPSSSLGTQTYICNVNHKPSNTKVDKKVEPKSCDKTHTCPPCPAPEFEGGPSVFLFPPKPKDTLMISRTPEVTCVVVAVSHEDPEVKFNWYVDGVEVHNAKTKPREEQYNSTYRVVSVLTVLHQDWLNGKEYKCKVSNKALPAPIEKTISKAKGQPREPQVYTLPPSREEMTKNQVSLTCLVKGFYPSDIAVEWESNGQPENNYKTTPPVLDSDGSFFLYSKLTVDKSRWQQGNVFSCSVMHEALHNHYTQKSLSLSPGGGGGSGGGGSGGGGSGGGGSGGGGSGGGGSSYELTQPLSVSVALGQTARITCGGHNIGSKNVHWYQQKPGQAPVLVIYQDNKRPSGIPERFSGSNSGNTATLTISRAQAGDEADYYCQVWDNYNVLFGCGTKLTVLGGSGGSGGSGGSGGSGGSGGSQVQLVQSGAEVKKPGASVKVSCKASGYTFTSYYMHWVRQAPGQCLEWMGAIEPRYGSTSYAQKFQGRVTMTRDTSTSTVYMELSSLRSEDTAVYYCARGSAYYYDFADYWGQGTLVTVSS
chain 2: not shown
With B3 the “EC50 (read off the curve)” value [9] was roughly 0.4 nM.
